Source: PMC6532931, “Structures suggest a mechanism for energy coupling by a family of organic anion transporters” (PLoS Biology, 2019)

Substrate: O=C(O)[C@H](O)[C@@H](O)[C@@H](O)[C@H](O)CO
Assay: cells, lysate or membranes
Format: cell-based, Escherichia coli
Settings: pH 6.5, 150 mM KCl, 25 °C, 30 s uptake, labelled compound, H+ symport

B1: DgoT (Escherichia coli) (protein)
chain: MVSGFAMPKIWRKLAMDIPVNAAKPGRRRYLTLVMIFITVVICYVDRANLAVASAHIQEEFGITKAEMGYVFSAFAWLYTLCQIPGGWFLDRVGSRVTYFIAIFGWSVATLFQGFATGLMSLIGLRAITGIFEAPAFPTNNRMVTSWFPEHERASAVGFYTSGQFVGLAFLTPLLIWIQEMLSWHWVFIVTGGIGIIWSLIWFKVYQPPRLTKGISKAELDYIRDGGGLVDGDAPVKKEARQPLTAKDWKLVFHRKLIGVYLGQFAVASTLWFFLTWFPNYLTQEKGITALKAGFMTTVPFLAAFVGVLLSGWVADLLVRKGFSLGFARKTPIICGLLISTCIMGANYTNDPMMIMCLMALAFFGNGFASITWSLVSSLAPMRLIGLTGGVFNFAGGLGGITVPLVVGYLAQGYGFAPALVYISAVALIGALSYILLVGDVKRVG
notes: full-length in pQE60, C-terminal thrombin site and decahistidine tag (kept in uptake assays, cut for crystallization); expressed in E. coli dgoT knock-out (Keio, lambda-DE3) for uptake, E. coli C41 for purification
Km: 18 ± 4 µM
